Reference: PMC3170326, “AKAP12 and AKAP5 form higher-order hetero-oligomers” (Journal of Molecular Signaling, 2011)

Assays:
[1] = target: His-tagged AKAP12 (purified, used for steric-exclusion chromatography) (human) (UniProt Q02952); assay: SEC; purified His-tagged AKAP5 or AKAP12 alone on HiPrep Sephacryl S-400 HR 16/60, PBS with 0.01% NaN3; fractions analysed by SDS-PAGE and immunoblot; homo-oligomer size from elution position
[2] = target: T1, HA-tagged full-length AKAP5 (human, UniProt P24588 1-427); assay: co-IP; anti-HA immunoprecipitation from whole-cell lysates of A431 cells co-expressing an HA-tagged and a GFP-tagged AKAP; cells untreated, treated with 10 uM isoproterenol for 10-30 min, or washed free of agonist for 2 h; immunoblot; details: partners not purified
T1 construct: AKAP5 (AKAP79), human, full length; pCMV-HA vector; also called HA-AKAP5; source: A431 cells, transiently transfected, in lysate
T1 sequence (P24588 whole entry): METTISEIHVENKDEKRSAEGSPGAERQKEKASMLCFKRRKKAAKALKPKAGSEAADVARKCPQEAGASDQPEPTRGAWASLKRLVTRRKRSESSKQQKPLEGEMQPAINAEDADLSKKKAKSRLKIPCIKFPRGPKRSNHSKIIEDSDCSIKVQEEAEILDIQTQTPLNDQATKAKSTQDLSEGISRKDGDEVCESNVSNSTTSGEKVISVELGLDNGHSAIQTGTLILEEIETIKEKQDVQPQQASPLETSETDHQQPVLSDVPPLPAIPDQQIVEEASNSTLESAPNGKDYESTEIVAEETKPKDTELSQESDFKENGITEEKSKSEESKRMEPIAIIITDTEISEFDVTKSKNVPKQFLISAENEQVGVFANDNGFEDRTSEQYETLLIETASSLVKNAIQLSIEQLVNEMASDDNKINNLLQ

stoichiometry N [1]	fold increase of AKAP12 co-precipitated with AKAP5 after 30 min isoproterenol, over unstimulated cells [2] [fold]	Molecule
4		His-tagged AKAP12 (purified, used for steric-exclusion chromatography) (from UniProt Q02952 1-1782) (natural protein)
	4	GFP-tagged AKAP12 (natural protein, human, UniProt Q02952 1-1782, looked up, AKAP12 (gravin), human, full length; also called AKAP12-GFP; full-length AKAP12; source: A431 cells, stably expressing, in lysate) MGAGSSTEQRSPEQPPEGSSTPAEPEPSGGGPSAEAAPDTTADPAIAASDPATKLLQKNGQLSTINGVAEQDELSLQEGDLNGQKGALNGQGALNSQEEEEVIVTEVGQRDSEDVSKRDSDKEMATKSAVVHDITDDGQEETPEIIEQIPSSESNLEELTQPTESQANDIGFKKVFKFVGFKFTVKKDKTEKPDTVQLLTVKKDEGEGAAGAGDHKDPSLGAGEAASKESEPKQSTEKPEETLKREQSHAEISPPAESGQAVEECKEEGEEKQEKEPSKSAESPTSPVTSETGSTFKKFFTQGWAGWRKKTSFRKPKEDEVEASEKKKEQEPEKVDTEEDGKAEVASEKLTASEQAHPQEPAESAHEPRLSAEYEKVELPSEEQVSGSQGPSEEKPAPLATEVFDEKIEVHQEEVVAEVHVSTVEERTEEQKTEVEETAGSVPAEELVEMDAEPQEAEPAKELVKLKETCVSGEDPTQGADLSPDEKVLSKPPEGVVSEVEMLSSQERMKVQGSPLKKLFTSTGLKKLSGKKQKGKRGGGDEESGEHTQVPADSPDSQEEQKGESSASSPEEPEEITCLEKGLAEVQQDGEAEEGATSDGEKKREGVTPWASFKKMVTPKKRVRRPSESDKEDELDKVKSATLSSTESTASEMQEEMKGSVEEPKPEEPKRKVDTSVSWEALICVGSSKKRARRGSSSDEEGGPKAMGGDHQKADEAGKDKETGTDGILAGSQEHDPGQGSSSPEQAGSPTEGEGVSTWESFKRLVTPRKKSKSKLEEKSEDSIAGSGVEHSTPDTEPGKEESWVSIKKFIPGRRKKRPDGKQEQAPVEDAGPTGANEDDSDVPAVVPLSEYDAVEREKMEAQQAQKSAEQPEQKAATEVSKELSESQVHMMAAAVADGTRAATIIEERSPSWISASVTEPLEQVEAEAALLTEEVLEREVIAEEEPPTVTEPLPENREARGDTVVSEAELTPEAVTAAETAGPLGAEEGTEASAAEETTEMVSAVSQLTDSPDTTEEATPVQEVEGGVPDIEEQERRTQEVLQAVAEKVKEESQLPGTGGPEDVLQPVQRAEAERPEEQAEASGLKKETDVVLKVDAQEAKTEPFTQGKVVGQTTPESFEKAPQVTESIESSELVTTCQAETLAGVKSQEMVMEQAIPPDSVETPTDSETDGSTPVADFDAPGTTQKDEIVEIHEENEVASGTQSGGTEAEAVPAQKERPPAPSSFVFQEETKEQSKMEDTLEHTDKEVSVETVSILSKTEGTQEADQYADEKTKDVPFFEGLEGSIDTGITVSREKVTEVALKGEGTEEAECKKDDALELQSHAKSPPSPVEREMVVQVEREKTEAEPTHVNEEKLEHETAVTVSEEVSKQLLQTVNVPIIDGAKEVSSLEGSPPPCLGQEEAVCTKIQVQSSEASFTLTAAAEEEKVLGETANILETGETLEPAGAHLVLEEKSSEKNEDFAAHPGEDAVPTGPDCQAKSTPVIVSATTKKGLSSDLEGEKTTSLKWKSDEVDEQVACQEVKVSVAIEDLEPENGILELETKSSKLVQNIIQTAVDQFVRTEETATEMLTSELQTQAHVIKADSQDAGQETEKEGEEPQASAQDETPITSAKEESESTAVGQAHSDISKDMSEASEKTMTVEVEGSTVNDQQLEEVVLPSEEEGGGAGTKSVPEDDGHALLAERIEKSLVEPKEDEKGDDVDDPENQNSALADTDASGGLTKESPDTNGPKQKEKEDAQEVELQEGKVHSESDKAITPQAQEELQKQERESAKSELTES
